Results: patent publication US20190233517A1

What was measured:
Settings in all cases: remark: other sources report otherwise
Her3-his, P21860 = assay: SPR
HER3, P21860 [1] = assay: kinetic binding data, method not stated
HER3, P21860 [2] = assay: kinetic binding data, method not stated; remark: listed apart in the source

Kd (Her3-his, P21860): 1.28 nM
Kd (HER3, P21860 [1]): 0.9 nM
Kd (HER3, P21860 [2]): 0.0302 nM
B1: Her3 antibody patritumab (antibody, V domains shown)
VH: QVQLQQWGAGLLKPSETLSLTCAVYGGSFSGYYWSWIRQPPGKGLEWIGEINHSGSTNYNPSLKSRVTISVETSKNQFSLKLSSVTAADTAVYYCARDKWTWYFDLWGRGTLVTVSS
VL: not shown
